Results: patent publication US20160303253A1

Biological target: Human trophoblast cell-surface antigen (TROP-2) (human) (UniProt P09758)
Assay: cell-based or functional assay

Chain of Human trophoblast cell-surface antigen (TROP-2) (human) (P09758 27-323): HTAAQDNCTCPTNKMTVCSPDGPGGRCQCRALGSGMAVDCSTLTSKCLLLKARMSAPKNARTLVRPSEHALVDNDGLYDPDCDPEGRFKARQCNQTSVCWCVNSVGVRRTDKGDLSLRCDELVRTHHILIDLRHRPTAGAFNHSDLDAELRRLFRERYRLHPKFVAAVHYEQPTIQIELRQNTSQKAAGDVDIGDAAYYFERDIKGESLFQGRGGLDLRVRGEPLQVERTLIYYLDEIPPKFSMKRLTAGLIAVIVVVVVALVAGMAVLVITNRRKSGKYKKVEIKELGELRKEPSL

For hRS7-CL2A-SN-38 (antibody), which ADC/free SN-38 ratio of IC50, in vitro cytotoxicity, BxPC-3 is on record?
Its ADC/free SN-38 ratio of IC50, in vitro cytotoxicity, BxPC-3 is 2.8.

What about the ADC/free SN-38 ratio of IC50, in vitro cytotoxicity, COLO 205 of the same substance?
Its ADC/free SN-38 ratio of IC50, in vitro cytotoxicity, COLO 205 is 1.91.

And the ADC/free SN-38 ratio of IC50, in vitro cytotoxicity, Calu-3?
Its ADC/free SN-38 ratio of IC50, in vitro cytotoxicity, Calu-3 is 1.39.

What about the ADC/free SN-38 ratio of IC50, in vitro cytotoxicity, Capan-1 of the same substance?
Its ADC/free SN-38 ratio of IC50, in vitro cytotoxicity, Capan-1 is 2.

What about the ADC/free SN-38 ratio of IC50, in vitro cytotoxicity, PC-3 of the same substance?
The ADC/free SN-38 ratio of IC50, in vitro cytotoxicity, PC-3 was 2.28.

What about the ADC/free SN-38 ratio of IC50, in vitro cytotoxicity, SK-MES-1 of the same substance?
Its ADC/free SN-38 ratio of IC50, in vitro cytotoxicity, SK-MES-1 is 2.69.
